According to article PMC8563704, “Gain-of-Function Properties of a Dynamin 2 Mutant Implicated in Charcot-Marie-Tooth Disease” (Frontiers in Cellular Neuroscience, 2021):
Where a chain is given by its changes, count along the chain named. Numbers in names are those of the source.

B1: DNM2^WT-EGFP (enzyme, rat, UniProt P39052-1 1-870, looked up)
chain: MGNRGMEELIPLVNKLQDAFSSIGQSCHLDLPQIAVVGGQSAGKSSVLENFVGRDFLPRGSGIVTRRPLILQLIFSKTEYAEFLHCKSKKFTDFDEVRQEIEAETDRVTGTNKGISPVPINLRVYSPHVLNLTLIDLPGITKVPVGDQPPDIEYQIKDMILQFISRESSLILAVTPANMDLANSDALKLAKEVDPQGLRTIGVITKLDLMDEGTDARDVLENKLLPLRRGYIGVVNRSQKDIEGRKDIRAALAAERKFFLSHPAYRHMADRMGTPHLQKTLNQQLTNHIRESLPTLRSKLQSQLLSLEKEVEEYKNFRPDDPTRKTKALLQMVQQFGVDFEKRIEGSGDQVDTLELSGGARINRIFHERFPFELVKMEFDEKDLRREISYAIKNIHGVRTGLFTPDLAFEAIVKKQVVKLKEPCLKCVDLVIQELISTVRQCTSKLSSYPRLREETERIVTTYIREREGRTKDQILLLIDIEQSYINTNHEDFIGFANAQQRSTQLNKKRAIPNQGEILVIRRGWLTINNISLMKGGSKEYWFVLTAESLSWYKDEEEKEKKYMLPLDNLKIRDVEKGFMSNKHVFAIFNTEQRNVYKDLRQIELACDSQEDVDSWKASFLRAGVYPEKDQAENEDGAQENTFSMDPQLERQVETIRNLVDSYVAIINKSIRDLMPKTIMHLMINNTKAFIHHELLAYLYSSADQSSLMEESAEQAQRRDDMLRMYHALKEALNIIGDISTSTVSTPVPPPVDDTWLQNTSSHSPTPQRRPVSSVHPPGRPPAVRGPTPGPPLIPMPVGATSSFSAPPIPSRPGPQNVFANNDPFSAPPQIPSRPARIPPGIPPGVPSRRAPAAPSRPTIIRPAEPSLLD
notes: dynamin 2, rat, isoform 1 (ba, IIBA), UniProtKB P39052-1; The template cDNAs carried C-terminal His6 tags; also called EGFP-tagged DNM2^WT; source: expressed in U2OS cells (brightness analysis); NIH-3T3 cells (FLIM-FRET); not shown: EGFP, C-terminal, kept
B2: DNM2^K562E-EGFP (enzyme, rat, UniProt P39052-1 1-870, looked up)
chain: B1 chain with K562E
notes: dynamin 2, rat, isoform 1 (ba, IIBA), UniProtKB P39052-1, with the CMT-linked mutation K562E; The template cDNAs carried C-terminal His6 tags; also called EGFP-tagged DNM2^K562E; source: expressed in U2OS cells; not shown: EGFP, C-terminal, kept
B3: DNM2^A618T-EGFP (enzyme, rat, UniProt P39052-1 1-870, looked up)
chain: B1 chain with A618T
notes: dynamin 2, rat, isoform 1 (ba, IIBA), UniProtKB P39052-1, with the CNM-linked mutation A618T; The template cDNAs carried C-terminal His6 tags; also called EGFP-tagged DNM2^A618T; source: expressed in U2OS cells; not shown: EGFP, C-terminal, kept
B4: DNM2^ΔDEE-EGFP (enzyme, rat, UniProt P39052-1 1-870, looked up)
chain: MGNRGMEELIPLVNKLQDAFSSIGQSCHLDLPQIAVVGGQSAGKSSVLENFVGRDFLPRGSGIVTRRPLILQLIFSKTEYAEFLHCKSKKFTDFDEVRQEIEAETDRVTGTNKGISPVPINLRVYSPHVLNLTLIDLPGITKVPVGDQPPDIEYQIKDMILQFISRESSLILAVTPANMDLANSDALKLAKEVDPQGLRTIGVITKLDLMDEGTDARDVLENKLLPLRRGYIGVVNRSQKDIEGRKDIRAALAAERKFFLSHPAYRHMADRMGTPHLQKTLNQQLTNHIRESLPTLRSKLQSQLLSLEKEVEEYKNFRPDDPTRKTKALLQMVQQFGVDFEKRIEGSGDQVDTLELSGGARINRIFHERFPFELVKMEFDEKDLRREISYAIKNIHGVRTGLFTPDLAFEAIVKKQVVKLKEPCLKCVDLVIQELISTVRQCTSKLSSYPRLREETERIVTTYIREREGRTKDQILLLIDIEQSYINTNHEDFIGFANAQQRSTQLNKKRAIPNQGEILVIRRGWLTINNISLMKGGSKEYWFVLTAESLSWYKEKEKKYMLPLDNLKIRDVEKGFMSNKHVFAIFNTEQRNVYKDLRQIELACDSQEDVDSWKASFLRAGVYPEKDQAENEDGAQENTFSMDPQLERQVETIRNLVDSYVAIINKSIRDLMPKTIMHLMINNTKAFIHHELLAYLYSSADQSSLMEESAEQAQRRDDMLRMYHALKEALNIIGDISTSTVSTPVPPPVDDTWLQNTSSHSPTPQRRPVSSVHPPGRPPAVRGPTPGPPLIPMPVGATSSFSAPPIPSRPGPQNVFANNDPFSAPPQIPSRPARIPPGIPPGVPSRRAPAAPSRPTIIRPAEPSLLD
notes: dynamin 2, rat, isoform 1 (ba, IIBA), UniProtKB P39052-1, with the CMT-linked deletion of residues 555DEE557; Deletion introduced into the EGFP-tagged DNM2^WT template; also called EGFP-tagged DNM2^Δ ^DEE; source: expressed in U2OS cells (brightness analysis); NIH-3T3 cells (FLIM-FRET); not shown: EGFP, C-terminal, kept

Molecular target: the molecule itself
Assay: fluorescence fluctuation spectroscopy (brightness analysis); EGFP-tagged dynamins in the cytosol of living U2OS cells, as a function of concentration; two-photon excitation at 1,000 nm; brightness normalised to monomeric EGFP

Row | Protein | stoichiometry N
1 | B1 | ~4
2 | B2 | ~4
3 | B3 | 20 to 24
4 | B4 | ~4
